# According to publication PMC10311867 (Biotechnology for Biofuels and Bioproducts, 2023):
# T1: AmRha (Aspergillus mulundensis, UniProt A0A3D8R006)
# T1 construct: gene DSM5745_09107; full-length synthetic gene (2589 bp, 862 aa); native-like purification (ammonium sulphate, DEAE)
# T1 sequence (A0A3D8R006 1-862): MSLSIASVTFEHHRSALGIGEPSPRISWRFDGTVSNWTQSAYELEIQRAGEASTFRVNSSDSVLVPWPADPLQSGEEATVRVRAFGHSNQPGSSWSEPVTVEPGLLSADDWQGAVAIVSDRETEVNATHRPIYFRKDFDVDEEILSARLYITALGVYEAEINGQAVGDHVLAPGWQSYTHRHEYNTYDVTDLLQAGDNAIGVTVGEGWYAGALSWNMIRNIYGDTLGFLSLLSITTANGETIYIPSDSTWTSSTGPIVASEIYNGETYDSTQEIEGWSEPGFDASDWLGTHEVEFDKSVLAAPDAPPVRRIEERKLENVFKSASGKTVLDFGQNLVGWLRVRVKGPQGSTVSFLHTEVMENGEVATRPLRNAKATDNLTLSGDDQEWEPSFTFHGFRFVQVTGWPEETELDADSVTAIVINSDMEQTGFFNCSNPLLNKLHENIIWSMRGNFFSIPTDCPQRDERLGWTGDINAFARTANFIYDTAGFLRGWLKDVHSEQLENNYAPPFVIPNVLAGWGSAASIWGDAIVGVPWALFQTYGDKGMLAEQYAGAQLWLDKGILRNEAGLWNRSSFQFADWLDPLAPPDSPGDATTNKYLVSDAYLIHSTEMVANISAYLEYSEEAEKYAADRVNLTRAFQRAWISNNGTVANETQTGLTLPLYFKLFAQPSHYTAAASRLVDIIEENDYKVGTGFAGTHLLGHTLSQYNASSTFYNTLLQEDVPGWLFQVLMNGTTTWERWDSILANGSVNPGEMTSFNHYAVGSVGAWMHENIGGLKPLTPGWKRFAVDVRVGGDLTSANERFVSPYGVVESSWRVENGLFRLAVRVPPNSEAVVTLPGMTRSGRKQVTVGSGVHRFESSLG
# B1: AmRha (Aspergillus mulundensis) (protein)
# chain: MSLSIASVTFEHHRSALGIGEPSPRISWRFDGTVSNWTQSAYELEIQRAGEASTFRVNSSDSVLVPWPADPLQSGEEATVRVRAFGHSNQPGSSWSEPVTVEPGLLSADDWQGAVAIVSDRETEVNATHRPIYFRKDFDVDEEILSARLYITALGVYEAEINGQAVGDHVLAPGWQSYTHRHEYNTYDVTDLLQAGDNAIGVTVGEGWYAGALSWNMIRNIYGDTLGFLSLLSITTANGETIYIPSDSTWTSSTGPIVASEIYNGETYDSTQEIEGWSEPGFDASDWLGTHEVEFDKSVLAAPDAPPVRRIEERKLENVFKSASGKTVLDFGQNLVGWLRVRVKGPQGSTVSFLHTEVMENGEVATRPLRNAKATDNLTLSGDDQEWEPSFTFHGFRFVQVTGWPEETELDADSVTAIVINSDMEQTGFFNCSNPLLNKLHENIIWSMRGNFFSIPTDCPQRDERLGWTGDINAFARTANFIYDTAGFLRGWLKDVHSEQLENNYAPPFVIPNVLAGWGSAASIWGDAIVGVPWALFQTYGDKGMLAEQYAGAQLWLDKGILRNEAGLWNRSSFQFADWLDPLAPPDSPGDATTNKYLVSDAYLIHSTEMVANISAYLEYSEEAEKYAADRVNLTRAFQRAWISNNGTVANETQTGLTLPLYFKLFAQPSHYTAAASRLVDIIEENDYKVGTGFAGTHLLGHTLSQYNASSTFYNTLLQEDVPGWLFQVLMNGTTTWERWDSILANGSVNPGEMTSFNHYAVGSVGAWMHENIGGLKPLTPGWKRFAVDVRVGGDLTSANERFVSPYGVVESSWRVENGLFRLAVRVPPNSEAVVTLPGMTRSGRKQVTVGSGVHRFESSLG
# notes: full-length synthetic gene (2589 bp, 862 aa); native-like purification (ammonium sulphate, DEAE)
# Tests used:
# AmRha = molecular target: T1, AmRha; test: residual activity on pNPR, […] nm; format: biochemical; details: read-out: remaining enzyme activity at 5 mM
# purified protein [1] = substrate: COc1ccc(-c2oc3c(CC=C(C)C)c(O[C@@H]4O[C@H](CO)[C@@H](O)[C@H](O)[C@H]4O)cc(O)c3c(=O)c2O[C@@H]2O[C@@H](C)[C@H](O)[C@@H](O)[C@H]2O[C@@H]2O[C@@H](C)[C@H](O)[C@@H](O)[C@H]2O)cc1; test: purified protein; details: hydrolysis of terminal alpha-1,2-rhamnose to icariin; kinetic conditions not stated
# purified protein [2] = substrate: C[C@@H]1O[C@@H](Oc2ccc([N+](=O)[O-])cc2)[C@H](O)[C@H](O)[C@H]1O; test: purified protein; format: biochemical, Aspergillus mulundensis; details: pH 5.5, 65 °C, 50 mM sodium phosphate
Molecule,remaining activity at 5000 µM (AmRha),Km (purified protein [1]),kcat (purified protein [1]),Km (purified protein [2]),kcat (purified protein [2])
C[C@@H]1OC(O)[C@H](O)[C@H](O)[C@H]1O (stereo partly drawn) [L-rhamnose],49.7%,–,–,–,–
B1,–,6.96 mM,37.11 s⁻¹,0.30 mM,900.34 s⁻¹
